Laboratory results taken from patent US20130230533A1 (Regeneron, published 2013).

T1: Monomeric human CD48-mmH (human)
T1 chain: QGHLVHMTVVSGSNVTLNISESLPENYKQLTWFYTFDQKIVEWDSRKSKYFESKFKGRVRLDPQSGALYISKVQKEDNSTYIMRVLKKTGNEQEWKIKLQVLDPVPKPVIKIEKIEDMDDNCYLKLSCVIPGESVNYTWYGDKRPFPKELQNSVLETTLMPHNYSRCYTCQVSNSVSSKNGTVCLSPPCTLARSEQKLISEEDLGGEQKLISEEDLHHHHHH

T2: Dimeric human CD48-mFc (human)
T2 construct: the whole entry is the construct; also called hCD48-mFc
T2 chain: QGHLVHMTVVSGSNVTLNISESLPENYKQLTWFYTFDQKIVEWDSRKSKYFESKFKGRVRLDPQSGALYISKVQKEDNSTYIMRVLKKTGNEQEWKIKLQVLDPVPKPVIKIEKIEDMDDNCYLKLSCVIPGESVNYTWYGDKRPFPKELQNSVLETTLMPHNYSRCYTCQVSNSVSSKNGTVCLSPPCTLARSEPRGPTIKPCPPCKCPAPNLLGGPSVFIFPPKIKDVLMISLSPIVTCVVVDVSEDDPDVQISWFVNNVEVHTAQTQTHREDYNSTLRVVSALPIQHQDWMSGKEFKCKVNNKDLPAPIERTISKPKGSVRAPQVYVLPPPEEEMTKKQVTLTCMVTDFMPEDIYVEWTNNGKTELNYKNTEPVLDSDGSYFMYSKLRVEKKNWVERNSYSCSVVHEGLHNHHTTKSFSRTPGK

T3: Dimeric human CD48-mFc (human)
T3 chain: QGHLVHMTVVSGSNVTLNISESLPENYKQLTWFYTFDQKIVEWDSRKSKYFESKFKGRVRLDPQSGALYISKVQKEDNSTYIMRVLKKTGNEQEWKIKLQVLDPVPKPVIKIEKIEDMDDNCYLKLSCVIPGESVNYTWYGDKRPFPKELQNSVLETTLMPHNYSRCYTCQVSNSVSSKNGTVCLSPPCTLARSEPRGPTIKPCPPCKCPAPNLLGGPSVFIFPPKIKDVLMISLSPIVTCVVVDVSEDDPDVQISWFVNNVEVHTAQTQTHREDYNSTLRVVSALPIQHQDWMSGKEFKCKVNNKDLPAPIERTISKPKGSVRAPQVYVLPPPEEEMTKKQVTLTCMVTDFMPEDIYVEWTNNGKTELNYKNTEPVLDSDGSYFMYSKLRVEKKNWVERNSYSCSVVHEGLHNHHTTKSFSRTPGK

T4: Monomeric human CD48-mmH (human)
T4 construct: also called soluble CD48 expressed with a myc-myc-hexa-histidine C-terminal tag [mmH]
T4 chain: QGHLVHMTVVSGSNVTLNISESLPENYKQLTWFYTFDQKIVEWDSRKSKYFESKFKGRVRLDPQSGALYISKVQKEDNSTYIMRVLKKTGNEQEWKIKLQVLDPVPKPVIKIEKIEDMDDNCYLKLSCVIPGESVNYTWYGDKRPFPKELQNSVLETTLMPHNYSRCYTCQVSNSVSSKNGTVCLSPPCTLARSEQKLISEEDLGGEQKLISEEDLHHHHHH


What was measured:
Monomeric human CD48-mmH [1] = target: T1, Monomeric human CD48-mmH; assay: SPR (Biacore), antibody captured by anti-Fc, CD48 in solution, 37 C
Method: (§1) Measurements were conducted on a T100-2 BIACORE™ instrument (Biacore Life Sciences division of GE Healthcare, Piscataway, N.J.). Antibodies (either with mouse Fc [designated “H2M” or “H3M”] or human IgG4 Fc [designated “H4H”]) were captured through an anti-Fc chip surface, and CD48 was flowed over the surface either in a monomeric (soluble CD48 expressed with a myc-myc-hexa-histidine C-terminal tag [mmH]) or dimeric (soluble CD48 expressed with a C-terminal Fc fusion [mFc]) format.
(§2) The soluble CD48 was applied to the flow cell in separate injections at different concentrations, and kinetic association (kₐ) and dissociation (kd) rate constants were determined by fits to the kinetic binding data using Biacore software. Binding dissociation equilibrium constants and dissociation half-times were calculated from the kinetic rate constants as: KD=kd/kₐ; t_{1/2}=(ln 2/kd) (units: ka=M⁻¹*s⁻¹; kd=s⁻¹; KD=M; T½=min) (Tables 3-6).

Dimeric human CD48-mFc [2] = target: T2, Dimeric human CD48-mFc; assay: as above
Method: as §1, §2

Dimeric human CD48-mFc [3] = target: T3, Dimeric human CD48-mFc; assay: SPR (Biacore T100), 25 C, antibody captured by anti-Fc, dimeric CD48-mFc in solution
Method: as §1, §2

Monomeric human CD48-mmH [4] = target: T4, Monomeric human CD48-mmH; assay: SPR (Biacore T100), 25 C, antibody captured by anti-Fc, monomeric CD48-mmH in solution
Method: as §1, §2

| Kd (Monomeric human CD48-mmH [1]) | T½ (Monomeric human CD48-mmH [1]) | koff (Monomeric human CD48-mmH [1]) | kon (Monomeric human CD48-mmH [1]) | Kd (Dimeric human CD48-mFc [2]) | T½ (Dimeric human CD48-mFc [2]) | koff (Dimeric human CD48-mFc [2]) | kon (Dimeric human CD48-mFc [2]) | Kd (Dimeric human CD48-mFc [3]) | T½ (Dimeric human CD48-mFc [3]) | koff (Dimeric human CD48-mFc [3]) | kon (Dimeric human CD48-mFc [3]) | Kd (Monomeric human CD48-mmH [4]) | T½ (Monomeric human CD48-mmH [4]) | koff (Monomeric human CD48-mmH [4]) | kon (Monomeric human CD48-mmH [4]) | Binder |
| --- | --- | --- | --- | --- | --- | --- | --- | --- | --- | --- | --- | --- | --- | --- | --- | --- |
| 13.5 nM | 1 min | 0.0201 s⁻¹ | 1.49e+06 M⁻¹ s⁻¹ | 0.293 nM | 13 min | 0.000883 s⁻¹ | 3.02e+06 M⁻¹ s⁻¹ | – | – | – | – | – | – | – | – | H2M1763N (antibody, mouse IgG2, V domains shown, Human variable domains, mouse IgG2 Fc (H2M)) VH: QIQLVQSGAEMKRPGTSVKVSCKASGYTFTSYGINWVRQAPGQGLEWMGWISAYNGDTNYAQKLQGRVTMTTDTSTTTAYMEVRSLRSDDTAVYYCARFLTGTKDYYYGMDVWGQGTTVTVSS VL: DIQMTQSPSSLSASVGDRVTITCQASQDISNFLNWYQQKPGKAPDLLINDASILETGVPSRFSGSGSGTDFTLTINNLQPEDIATYYCQQYDNLPLTFGGGTKVEIK |
| – | – | – | – | – | – | – | – | 0.0268 nM | 211 min | 5.48e-05 s⁻¹ | 2.05e+06 M⁻¹ s⁻¹ | 8.2 nM | 2 min | 0.00631 s⁻¹ | 769000 M⁻¹ s⁻¹ | H4H1763N (antibody, human IgG4, V domains shown, Human IgG4 Fc (prefix H4H)) VH: QIQLVQSGAEMKRPGTSVKVSCKASGYTFTSYGINWVRQAPGQGLEWMGWISAYNGDTNYAQKLQGRVTMTTDTSTTTAYMEVRSLRSDDTAVYYCARFLTGTKDYYYGMDVWGQGTTVTVSS VL: DIQMTQSPSSLSASVGDRVTITCQASQDISNFLNWYQQKPGKAPDLLINDASILETGVPSRFSGSGSGTDFTLTINNLQPEDIATYYCQQYDNLPLTFGGGTKVEIK |
| – | – | – | – | – | – | – | – | 0.288 nM | 22 min | 0.00053 s⁻¹ | 1.84e+06 M⁻¹ s⁻¹ | 11.8 nM | 2 min | 0.00619 s⁻¹ | 524000 M⁻¹ s⁻¹ | H2M1712N (antibody, mouse IgG2, V domains shown, Human variable domains, mouse IgG2 Fc (prefix H2M)) VH: QIQLVQSGAEMKRPGTSVKVSCKASGYTFSSYGINWVRQAPGQGLEWMGWISAYNGDTNYAQKLQGRVTMTTDTSTTTAYMEVRSLRSDDTAVYYCARFLTGTKDLYYGMDVWGQGTTVTVSS VL: DIQMTQSPSSLSASVGDRVTITCQASQDISNFLNWYQQKPGKAPDLLINDASILETGVPSRFSGSGSGTDFTLTINSLQPEDIATYYCQQYDNLPLTFGGGTKVEIK |
| 16.6 nM | 1 min | 0.014 s⁻¹ | 846000 M⁻¹ s⁻¹ | 0.252 nM | 17 min | 0.000685 s⁻¹ | 2.72e+06 M⁻¹ s⁻¹ | – | – | – | – | – | – | – | – | H2M1712N (antibody, mouse IgG2, V domains shown, Human variable domains, mouse IgG2 Fc (H2M)) VH: QIQLVQSGAEMKRPGTSVKVSCKASGYTFSSYGINWVRQAPGQGLEWMGWISAYNGDTNYAQKLQGRVTMTTDTSTTTAYMEVRSLRSDDTAVYYCARFLTGTKDLYYGMDVWGQGTTVTVSS VL: DIQMTQSPSSLSASVGDRVTITCQASQDISNFLNWYQQKPGKAPDLLINDASILETGVPSRFSGSGSGTDFTLTINSLQPEDIATYYCQQYDNLPLTFGGGTKVEIK |
| 14.7 nM | 4 min | 0.00314 s⁻¹ | 214000 M⁻¹ s⁻¹ | 0.247 nM | 51 min | 0.000227 s⁻¹ | 920000 M⁻¹ s⁻¹ | – | – | – | – | – | – | – | – | H2M1707N (antibody, V domains shown, Human variable domains, mouse IgG2 Fc (H2M)) VH: EGQLLESGGGLAQPGGSLRLSCAASGITFGRYAMSWVRQAPGKGLEWVSLISGSGGSTYHADSVKGRFTISRDNSKNTLYLQMNSLRAEDTAVYYCAIYNNYNWFDPWGQGTLVTVSS VL: EIVLTQSPGTLSLSPGERATLSCRASQSVSSNYLAWYQQKPGQAPRLLIYDASSRATDIPDRFSGSGSGTDFTLTISRLEPEDFAVYYCQQYGSSPRTFGQGTKVEIK |
| 35.1 nM | 0 min | 0.04 s⁻¹ | 1.14e+06 M⁻¹ s⁻¹ | 0.248 nM | 31 min | 0.000377 s⁻¹ | 1.52e+06 M⁻¹ s⁻¹ | – | – | – | – | – | – | – | – | H2M1709N (antibody, mouse IgG2, V domains shown, Human variable domains, mouse IgG2 Fc (H2M)) VH: QVQLVQSGAEVKKPGASVKVSCKVSGYTLTELSIHWVRQAPGKGLEWMGGFDPEDGETIYAQKFQGRVNMTEDTSTDTAYMELSSLRSDDTTVYFCASLLPYFDYWGQGTLVTVSS VL: EIVLTQSPGTLSLSPGERATLSCRASQSVSSSYLAWYQQKPGQAPRLLIYGASSRATGIPDRFSGSGSGTDFTLSISRLEPEDFAVYFCQQYGSSMYTFGQGTKLEIK |
